Article PMC5694551, “Kir2.1-Nav1.5 Channel Complexes Are Differently Regulated than Kir2.1 and Nav1.5 Channels Alone” (Frontiers in Physiology, 2017)

Target: T1, Nav1.5 channels of rat ventricular myocytes (rat (endogenous in ventricular myocytes), UniProt P15389 1-2019)
T1 construct: Nav1.5 sodium channel alpha subunit, endogenous at the membrane of Sprague-Dawley rat ventricular myocytes; source: endogenous, isolated rat ventricular myocytes (fixed, non-permeabilized)
Experiment: proximity ligation; Duolink PLA in fixed, non-permeabilized rat ventricular myocytes; primary antibodies against extracellular domains of Nav1.5 and Kir2.1; buffers without detergents; confocal microscopy; negative control without primary antibodies
Details: partners not purified

T1 sequence (P15389 whole entry): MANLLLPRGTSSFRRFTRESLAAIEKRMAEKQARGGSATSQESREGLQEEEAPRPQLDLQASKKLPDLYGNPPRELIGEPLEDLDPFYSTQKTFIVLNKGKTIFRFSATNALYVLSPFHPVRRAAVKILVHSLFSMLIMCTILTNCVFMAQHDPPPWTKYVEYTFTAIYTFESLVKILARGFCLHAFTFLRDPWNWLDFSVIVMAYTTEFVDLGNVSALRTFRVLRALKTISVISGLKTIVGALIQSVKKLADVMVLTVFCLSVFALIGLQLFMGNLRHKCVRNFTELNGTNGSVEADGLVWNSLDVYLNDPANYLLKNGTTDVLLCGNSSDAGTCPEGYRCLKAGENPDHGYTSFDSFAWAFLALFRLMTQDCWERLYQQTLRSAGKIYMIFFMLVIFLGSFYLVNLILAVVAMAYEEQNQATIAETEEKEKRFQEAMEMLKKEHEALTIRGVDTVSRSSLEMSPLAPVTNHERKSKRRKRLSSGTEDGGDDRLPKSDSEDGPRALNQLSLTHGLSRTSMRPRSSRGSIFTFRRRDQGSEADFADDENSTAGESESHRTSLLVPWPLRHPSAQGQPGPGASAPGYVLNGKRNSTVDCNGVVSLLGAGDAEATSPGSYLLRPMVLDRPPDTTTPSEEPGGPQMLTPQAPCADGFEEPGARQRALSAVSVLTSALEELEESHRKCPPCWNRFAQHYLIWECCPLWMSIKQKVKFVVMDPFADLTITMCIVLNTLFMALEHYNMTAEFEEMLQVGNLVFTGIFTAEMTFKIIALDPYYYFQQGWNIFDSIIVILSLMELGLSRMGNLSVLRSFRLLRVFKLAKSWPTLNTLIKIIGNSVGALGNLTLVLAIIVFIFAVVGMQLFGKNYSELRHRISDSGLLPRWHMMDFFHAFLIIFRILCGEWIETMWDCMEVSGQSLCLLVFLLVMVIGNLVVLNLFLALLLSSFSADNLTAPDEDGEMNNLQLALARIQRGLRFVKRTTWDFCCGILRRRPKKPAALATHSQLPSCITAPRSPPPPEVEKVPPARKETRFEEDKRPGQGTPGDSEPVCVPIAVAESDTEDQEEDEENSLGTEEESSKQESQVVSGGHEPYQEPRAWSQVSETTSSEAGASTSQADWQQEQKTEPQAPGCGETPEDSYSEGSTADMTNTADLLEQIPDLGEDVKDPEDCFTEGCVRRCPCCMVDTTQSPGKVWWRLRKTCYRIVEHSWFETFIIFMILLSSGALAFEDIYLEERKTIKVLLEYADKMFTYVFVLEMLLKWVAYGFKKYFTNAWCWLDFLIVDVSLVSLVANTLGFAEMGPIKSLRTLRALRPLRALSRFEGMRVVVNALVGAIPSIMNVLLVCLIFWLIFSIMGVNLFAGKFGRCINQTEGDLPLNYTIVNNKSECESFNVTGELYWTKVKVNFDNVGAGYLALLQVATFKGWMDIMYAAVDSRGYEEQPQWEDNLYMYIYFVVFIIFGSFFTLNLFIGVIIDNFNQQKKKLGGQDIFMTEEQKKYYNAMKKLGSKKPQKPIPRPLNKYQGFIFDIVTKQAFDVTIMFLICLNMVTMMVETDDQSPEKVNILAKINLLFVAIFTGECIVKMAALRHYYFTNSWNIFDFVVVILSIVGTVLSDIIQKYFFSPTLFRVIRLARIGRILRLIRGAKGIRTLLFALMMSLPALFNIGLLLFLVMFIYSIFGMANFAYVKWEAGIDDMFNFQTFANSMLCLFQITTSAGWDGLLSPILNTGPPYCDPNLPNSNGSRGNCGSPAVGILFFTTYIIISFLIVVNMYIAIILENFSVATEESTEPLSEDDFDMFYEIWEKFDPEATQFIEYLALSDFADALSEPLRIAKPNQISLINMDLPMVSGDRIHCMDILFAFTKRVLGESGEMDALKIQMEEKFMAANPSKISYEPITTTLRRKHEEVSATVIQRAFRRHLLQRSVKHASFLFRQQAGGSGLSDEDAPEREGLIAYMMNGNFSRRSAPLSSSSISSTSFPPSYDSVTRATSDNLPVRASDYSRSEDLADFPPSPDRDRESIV

B1: Kir2.1 channels of rat ventricular myocytes (natural protein, rat (endogenous in ventricular myocytes), UniProt Q64273 1-427, looked up)
chain: MGSVRTNRYSIVSSEEDGMKLATMAVANGFGNGKSKVHTRQQCRSRFVKKDGHCNVQFINVGEKGQRYLADIFTTCVDIRWRWMLVIFCLAFVLSWLFFGCVFWLIALLHGDLDASKESKACVSEVNSFTAAFLFSIETQTTIGYGFRCVTDECPIAVFMVVFQSIVGCIIDAFIIGAVMAKMAKPKKRNETLVFSHNAVIAMRDGKLCLMWRVGNLRKSHLVEAHVRAQLLKSRITSEGEYIPLDQIDINVGFDSGIDRIFLVSPITIVHEIDEDSPLYDLSKQDIDNADFEIVVILEGMVEATAMTTQCRSSYLANEILWGHRYEPVLFEEKHCYKVDYSRFHKTYEVPNTPLCSARDLAEKKYILSNANSFCYENEVALTSKEEEDSENGVPESTSTDSPPGIDLHNQASVPLEPRPLRRESEI
notes: Kir2.1 inward rectifier K+ channel, endogenous at the membrane of Sprague-Dawley rat ventricular myocytes; source: endogenous, isolated rat ventricular myocytes (fixed, non-permeabilized)
fold increase of the PLA fluorescence signal over the negative control (no primary antibodies): ~6.5 fold
